Changes are numbered by the printed parent chain.
Molecular target: T1, human plasma kallikrein (human, UniProt P03952 20-390; P03952 391-638)
T1 construct: also called pKal; Human pKal
Assay: ELISA, biotinylated pKal signal over streptavidin background
Text: Abbreviations used: “T/B” is the ELISA signal obtained using of the “target” (biotinylated plasma kallikrein) divided by the ELISA signal of the “background” (streptavidin); both of which were coated on microtiter plates, “nd” is not determined. The symbol “q” refers to the amber suppressible stop codon (TAG), which is translated as glutamine (Q) in strains of E. coli such as the TG1 cells that were used to express the Fab fragments.

T1 sequence (P03952 20-390, chain 1 of 2): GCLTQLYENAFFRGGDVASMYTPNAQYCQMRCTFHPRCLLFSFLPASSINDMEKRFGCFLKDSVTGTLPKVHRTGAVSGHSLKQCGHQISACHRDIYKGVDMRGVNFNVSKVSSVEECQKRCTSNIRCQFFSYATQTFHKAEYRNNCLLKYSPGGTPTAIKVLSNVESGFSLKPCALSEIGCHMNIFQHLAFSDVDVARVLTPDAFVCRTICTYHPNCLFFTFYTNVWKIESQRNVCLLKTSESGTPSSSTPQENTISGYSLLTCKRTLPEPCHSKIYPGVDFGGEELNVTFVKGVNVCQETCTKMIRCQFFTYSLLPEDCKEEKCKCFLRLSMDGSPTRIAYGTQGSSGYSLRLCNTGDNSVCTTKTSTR
T1 sequence (P03952 391-638, chain 2 of 2): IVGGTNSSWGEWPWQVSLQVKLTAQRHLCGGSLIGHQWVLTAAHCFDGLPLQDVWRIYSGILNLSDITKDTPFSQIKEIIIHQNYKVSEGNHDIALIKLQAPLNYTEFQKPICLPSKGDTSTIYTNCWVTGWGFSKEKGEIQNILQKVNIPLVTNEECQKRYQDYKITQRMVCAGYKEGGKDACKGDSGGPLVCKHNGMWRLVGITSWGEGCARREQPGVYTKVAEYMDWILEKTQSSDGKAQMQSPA

B1: M11-E06 (Fab, V domains shown)
VH: EVQLLESGGGLVQPGGSLRLSCAASGFTFSQYAMHWVRQAPGKGLEWVSSIYPSGGFTLYADSVKGRFTISRDNSKNTLYLQMNSLRAEDTAMYYCARGGWLAGGELLNWGQGTLVTVSS
VL: DIQMTQSPSSLSASIGDRVTISCRASRGIGTYLNWYQQHAGKAPKLLIRAASSLETGVPPRFSGSGSGTDFTLTISSLQSDDFATYYCQESFTNVYNFGQGTKLEIK
notes: HC as printed runs into CH1
ELISA (T/B): 12.6 T/B

B2: M12-C09 (Fab, V domains shown)
VH: EVQLLESGGGLVQPGGSLRLSCAASGFTFSSYAMVWVRQAPGKGLEWVSSIGSSGGFTLYADSVKGRFTISRDNSKNTLYLQMNSLRAEDTAVYYCASMNLGGGDAFDIWGQGTMVTVSS
VL: DIQMTQSPSSLSASVGDRVTITCRASQSIGIYLNWYHQKPGKAPNLLIYGASSLQSGVPSRFSGSGSGTDFTLTISSLQPGDFATYYCQHSYSTPFTFGGGTKVEIK
notes: HC as printed runs into CH1
ELISA (T/B): 7 T/B

B3: M27-G09 (Fab, V domains shown)
VH: EVQLLESGGGLVQPGGSLRLSCAASGFTFSEYDMAWVRQAPGKGLEWVSYIVSSGGFTSYADSVKGRFTISRDNSKNTLYLQMNSLRAEDTAVYYCTTWAGWIAAADYWGQGTLVTVSS
VL: DIQMTQSPSSVSASVGDRITITCRTRQSISNYLNWYQQKPGEPPKLLIFAASSLQSGVPSRFSGSGTGTEFTLTISSLQPEDLAIYYCQQSYDIPFTFGQGTKLEIK
notes: HC as printed runs into CH1
ELISA (T/B): 2.2 T/B

B4: M28-A01 (Fab, V domains shown)
VH: EVQLLESGGGLVQPGGSLRLSCAASGFTFSWYAMHWVRQAPGKGLEWVSGIYSSGGYTKYADSVKGRFTISRDNSKNTLYLQMNSLRAEDTAVYYCARDLSNGDDVFDIWGQGTMVTVSS
VL: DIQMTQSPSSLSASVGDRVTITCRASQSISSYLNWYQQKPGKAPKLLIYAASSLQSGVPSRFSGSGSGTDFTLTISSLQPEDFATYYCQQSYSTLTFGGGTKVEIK
notes: HC as printed runs into CH1
ELISA (T/B): 19 T/B

B5: M12-D10 (Fab, V domains shown)
VH: EVQLLESGGGLVQPGGSLRLSCAASGFTFSNYPMDWVRQAPGKGLEWVSSISSSGGWTNYADSVKGRFTISRDNSKNTLYLQMNSLRAEDTAVYYCATDTSGSYLGFDYWGQGTLVTVSS
VL: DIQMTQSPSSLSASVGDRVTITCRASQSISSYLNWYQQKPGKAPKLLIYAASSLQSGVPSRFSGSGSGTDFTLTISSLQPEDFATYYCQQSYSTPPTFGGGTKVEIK
notes: HC as printed runs into CH1
ELISA (T/B): 9.9 T/B

B6: M12-A08 (Fab, V domains shown)
VH: EVQLLESGGGLVQPGGSLRLSCAASGFTFSWYYMGWVRQAPGKGLEWVSWIVSSGGLTLYADSVKGRFTISRDNSKNTLYLQMNSLRAEDTAMYYCARTTVTTGDAFDIWGQGTMVTVSS
VL: DIQMTQSPSSLSASVGDRVTITCRASQSISRYLNWYQQKPGKAPKLLIYAASTLETGVPSRFSGSGSGTDFTLTITTLQPEDFVIYYCQQSYSTPYTFGQGTKLEIK
notes: HC as printed runs into CH1
ELISA (T/B): 40.4 T/B

B7: M27-G01 (Fab, V domains shown)
VH: EVQLLESGGGLVQPGGSLRLSCAASGFTFSLYRMFWVRQAPGKGLEWVSSIWSSGGPTMYADSVKGRFTISRDNSKNTLYLQMNSLRAEDTAVYYCAREYPSTYYFDYWGQGTLVTVSS
VL: B6 VL with R31T, A50G, T53S, E55Q, T56S, T76S, T77S, V84T, T94D, E105D
notes: HC as printed runs into CH1
ELISA (T/B): 31.4 T/B

B8: M12-E06 (Fab, V domains shown)
VH: EVQLLESGGGLVQPGGSLRLSCAASGFTFSQYKMLWVRQAPGKGLEWVSGIGPSGGLTAYADSVKGRFTISRDNSKNTLYLQMNSLRAEDTAVYYCARAPWFGELGMDVWGQGTTVTVSS
VL: DIQMTQSPSSLSASVGDRVSITCRASQSISTYLNWYQHKPGKAPTLLIYGAFSLQSGVPSRFSGSGSGTDFALTISSLQPEDFATYYCQQSHSTPPTFGQGTRVEIK
notes: HC as printed runs into CH1
ELISA (T/B): 48 T/B

B9: M27-H10 (Fab, V domains shown)
VH: EVQLLESGGGLVQPGGSLRLSCAASGFTFSAYQMAWVRQAPGKGLEWVSVIYSSGGYTDYADSVKGRFTISRDNSKNTLYLQMNSLRAEDTAVYYCARHNWNDGAFDIWGQGTMVTVSS
VL: DIQMTQSPSSLSASVGDRVTITCRASQSISNYLNWYQQKPGKAPKFLIYAASSLQSGVPSRFSGSGSGTDFTLSISSLQPEDFATYYCQQSYSTPQTFGQGTKVEMK
notes: HC as printed runs into CH1
ELISA (T/B): 12.4 T/B

B10: M28-C03 (Fab, V domains shown)
VH: EVQLLESGGGLVQPGGSLRLSCAASGFTFSYYQMGWVRQAPGKGLEWVSSIYPSGGMTDYADSVKGRFTISRDNSKNTLYLQMNSLRAEDTAVYYCTRGSPWGDDAFDIWGQGTMVTVSS
VL: DIQMTQSPSSLSASVGDRVTITCRASQSINFYLNWYQQKPGKAPKLLIYVASSLESGVPSRFSGSASGTEFTLTISSLQPEDFATYYCLQSYSAPYTFGQGTKVEIT
notes: HC as printed runs into CH1
ELISA (T/B): 2.2 T/B

B11: M11-G12 (Fab, V domains shown)
VH: EVQLLESGGGLVQPGGSLRLSCAASGFTFSQYPMNWVRQAPGKGLEWVSSISSSGGFTTYADSVKGRFTISRDNSKNTLYLQMNSLRAEDTAVYYCAREEQQGGFDYWGQGTLVTVSS
VL: DIQMTQSPSSLSAFVGDRVSITCRASQTISVYVNWYQHKSGQAPKLLIYGASSLQSGVPSRFSGSGSGTDFTLTISSLQPEDFATYFCQQSYSIPFTFGGGTDVQIR
notes: HC as printed runs into CH1
ELISA (T/B): 4.9 T/B

B12: M27-F11 (Fab, V domains shown)
VH: EVQLLESGGGLVQPGGSLRLSCAASGFTFSSYHMMWVRQAPGKGLEWVSSIYPSGGATMYADSVKGRFTISRDNSKNTLYLQMNSLRAEDTAMYYCARDGYHYGDYTYFQHWGQGTLVTVSS
VL: DIQMTQSPSFLSASVGDRVTITCRASQGISSYLAWYQQKPGKAPKLLIYAASSLQSGVPSRFSGSGSGTDFTLTISSLQPEDFATYYCQQSYNTLRTFGPGTKVDLK
notes: HC as printed runs into CH1
ELISA (T/B): 10 T/B

B13: M27-B01 (Fab, V domains shown)
VH: EVQLLESGGGLVQPGGSLRLSCAASGFTFSDYTMWWVRQAPGKGLEWVSSISSSGGITFYADSVKGRFTISRDNSKNTLYLQMNSLRAEDTAVYYCARSADTAMGGAFDIWGQGTMVTVSS
VL: not shown
notes: HC as printed runs into CH1
ELISA (T/B): 33.1 T/B

B14: M27-B12 (Fab, V domains shown)
VH: EVQLLESGGGLVQPGGSLRLSCAASGFTFSWYQMMWVRQAPGKGLEWVSSISPSGGITEYADSVKGRFTISRDNSKNTLYLQMNSLRAEDTAVYYCARDRSSGWYYYGMDVWGQGTTVTVSS
VL: QYELTQPPAVSVSPGQTATITCSGDKLGDEYAAWYQQKPGQSPVLVIYQDRKRPSGIPERFSGSNFGNTATLTITGTQVMDEADYYCQAWGKRNVVFGGGTKLTVL
notes: HC as printed runs into CH1
ELISA (T/B): 2.3 T/B

B15: M28-D12 (Fab, V domains shown)
VH: EVQLLESGGGLVQPGGSLRLSCAASGFTFSWYTMHWVRQAPGKGLEWVSVIYPSGGPTSYADSVKGRFTISRDNSKNTLYLQMNSLRAEDTATYYCARDGSGSYLGFDYWGQGTLVTVSS
VL: DIQMTQSPSSLSASVGDRVTITCRASQSIATYLNWYQQKPGRAPKLLIYAASSLQSGVPSRFVGGGSGSGTHFTLTISSLQPEDFATYYCQQSYSTRETFGQGTKVEIK
notes: HC as printed runs into CH1
ELISA (T/B): 41.6 T/B

B16: M12-C10 (Fab, V domains shown)
VH: EVQLLESGGGLVQPGGSLRLSCAASGFTFSDYEMHWVRQAPGKGLEWVSGISPSGGKTQYADSVKGRFTISRDNSKNTLYLQMNSLRAEDTAVYYCARDLKWGGRGSPDWYFDLWGRGTLVTVSS
VL: QSALTQPPSVSVSPGQTASITCSGDKLGEKYVSWYQQKPGQSPVVVIYQDNKRPSGIPERFSGSNSGNTATLTISGTQAVDEADYYCQAWDSYTVVFGGGSKLTVLG
notes: HC as printed runs into CH1
ELISA (T/B): 8.3 T/B

B17: M27-A10 (Fab, V domains shown)
VH: EVQLLESGGGLVQPGGSLRLSCAASGFTFSWYRMDWVRQAPGKGLEWVSSIWPSGGLTSYADSVKGRFTISRDNSKNTLYLQMNSLRAEDTAVYYCARGWAPGGDAFDIWGQGTMVTVSS
VL: DIQMTQSPSSLSASVGDRVTITCRASQSISAYLNWYQQKPGKAPQLLMYGVGSLQSGVPSRFSGSGSGTDFTLTISSLQPEDFATYFCQQGYTTPVTFGGGTKVEIK
notes: HC as printed runs into CH1
ELISA (T/B): 3.2 T/B

B18: M27-F04 (Fab, V domains shown)
VH: EVQLLESGGGLVQPGGSLRLSCAASGFTFSWYPMTWVRQAPGKGLEWVSSIGPSGGQTIYADSVKGRFTISRDNSKNTLYLQMNSLRAEDTAVYYCTTEYGDYGGGFDPWGQGTLVTVSS
VL: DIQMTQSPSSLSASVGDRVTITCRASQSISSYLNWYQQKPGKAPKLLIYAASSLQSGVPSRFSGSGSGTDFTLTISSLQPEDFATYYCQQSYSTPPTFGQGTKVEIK
notes: HC as printed runs into CH1
ELISA (T/B): 10.5 T/B

B19: M11-G09 (Fab, V domains shown)
VH: EVQLLESGGGLVQPGGSLRLSCAASGFTFSLYNMTWVRQAPGKGLEWVSYIYPSGGGTHYADSVKGRFTISRDNSKNTLYLQMNSLRAEDTAVYYCARDTGFWSADAFDIWGQGTMVTVSS
VL: DIQMTQSPSSLSASVGDRVTITCRTSQGINHYLNWYQQKPGKAPKILVFAASELQTGVPSRFSGTGSGTSYTLTITSLQPEDVATYYCQQTYTSPYTFGQGTKLEVK
notes: HC as printed runs into CH1
ELISA (T/B): 23.6 T/B

B20: M27-G04 (Fab, V domains shown)
VH: EVQLLESGGGLVQPGGSLRLSCAASGFTFSAYYMVWVRQAPGKGLEWVSYISPSGGQTQYADSVKGRFTISRDNSKNTLYLQMNSLRAEDTAVYYCAREAISSSSFDYWGQGTLVTVSS
VL: DIQMTQSPSSLSASVGDRVTITCRASQRISYYLTWYQQKPGKVPKLLIYAASSLESGVPSRFSGSGSGTDFTLTISNLQPEDFATYYCQQAFSTPFTFGGGTKVEIK
notes: HC as printed runs into CH1
ELISA (T/B): 4.1 T/B

B21: M27-E03 (Fab, V domains shown)
VH: EVQLLESGGGLVQPGGSLRLSCAASGFTFSSYMMHWVRQAPGKGLEWVSGIYPSGGWTDYADSVKGRFTISRDNSKNTLYLQMNSLRAEDTATYYCARLVAGLDAFDIWGQGTMVTVSS
VL: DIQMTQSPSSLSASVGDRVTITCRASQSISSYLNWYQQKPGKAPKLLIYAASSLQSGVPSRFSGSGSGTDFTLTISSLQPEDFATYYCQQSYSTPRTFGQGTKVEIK
notes: HC as printed runs into CH1
ELISA (T/B): 35.9 T/B

B22: M12-B04 (Fab, V domains shown)
VH: EVQLLESGGGLVQPGGSLRLSCAASGFTFSLYSMYWVRQAPGKGLEWVSRIRPSGGGTVYADSVKGRFTISRDNSKNTLYLQMNSLRAEDTAVYYCARDPLYSSGDVWGQGTTVTVSS
VL: DIQMTQSPSSLSASVGDRVTITCRASQGIRNDLGWYQHKPGKAPKLLIYAASILQSGVPSRFSGTASGTDFTLTISSLQPEDFATYFCLQDYEYPLTFGGGTKLDIK
notes: HC as printed runs into CH1
ELISA (T/B): 18 T/B
